Laboratory results taken from US12324826B2, “Compositions and methods to mitigate or prevent an immune response to an immunogenic therapeutic molecule in non-human primates” (Jomoco, Corp, priority 2015, dated 2025).

Columns and labels:
[1] = test system: ADA against the potentially immunogenic therapeutic agent
Experimental: Administration of a basiliximab loading dose on Day 0 of the NHP toxicology study is followed on Day 1 by administration of a basiliximab maintenance dose and the potentially immunogenic therapeutic agent. Basiliximab is dosed approximately every 10 days to maintain a serum concentration at which CD25 is almost completely bound by basiliximab (about 200 ug/mL). The therapeutic agent is dosed at the proscribed interval and dose.
Administration of a nanocarrier encapsulated rapamycin (NER) loading dose on Day −2, −1, or 0 of the NHP toxicology study is followed on Day 0 by administration the potentially immunogenic therapeutic agent. NER and the therapeutic agent are then co-administered at the proscribed dose and intervals of every 1-4 weeks for as many as 12 weeks, following which the immunogenic therapeutic agent may be administered without NER.
Basiliximab is dosed approximately every 10 days to maintain a serum concentration at which CD25 is almost completely bound by basiliximab (about 200 ug/mL). Rapamycin is dosed daily or every other day during the course of basiliximab administration to maintain a rapamycin trough level within the range of 4-12 ng/mL. Following this treatment regimen, the immunogenic therapeutic agent may be administered without the immunosuppressants.

[2] = test system: ADA against the potentially immunogenic therapeutic agent; experiment: NHP preclinical pharmacokinetic study: ADA development with immunosuppressant plus immunogenic therapeutic agent; type: in vivo
Experimental: Administration of a basiliximab loading dose on Day 0 of the NHP preclinical pharmacokinetic study is followed on Day 1 by administration of a basiliximab maintenance dose and the potentially immunogenic therapeutic agent. Basiliximab is dosed approximately every 10 days to maintain a serum concentration at which CD25 is almost completely bound by basiliximab (about 200 ug/mL). The therapeutic agent is dosed at the proscribed interval and dose.
Administration of a nanocarrier encapsulated rapamycin (NER) loading dose on Day −2, −1, or 0 of the NHP preclinical pharmacokinetic study is followed on Day 0 by administration the potentially immunogenic therapeutic agent. NER and the therapeutic agent are then co-administered at the proscribed dose and intervals of every 1-4 weeks for as many as 12 weeks, following which the immunogenic therapeutic agent may be administered without NER.
Basiliximab is dosed approximately every 10 days to maintain a serum concentration at which CD25 is almost completely bound by basiliximab (about 200 ug/mL). Rapamycin is dosed daily or every other day during the course of basiliximab administration to maintain a rapamycin trough level within the range of 4-12 ng/mL. Following this treatment regimen, the immunogenic therapeutic agent may be administered without the immunosuppressant combination.

In the case of basiliximab, the “development of ADA” value ([1]; NHP toxicology study, immunosuppressant plus therapeutic agent, compared with therapeutic agent alone) is reported as “prevents the development of ADA”, the “immune mediated drug induced liver injury (DILI) in the group given immunosuppressant and therapeutic agent” value ([1]; in vivo) is reported as “develop immune mediated drug induced liver injury (DILI)” and the “development of ADA in the immunosuppressant treated group” value ([2]; NHP given immunosuppressant and potentially immunogenic therapeutic agent, compared with control group given therapeutic agent alone) is reported as “no ADA develops or the level of ADA is sufficiently low”. For the same substance, the “pharmacokinetic parameters of the therapeutic agent in the immunosuppressant treated group” value ([2]; NHP given immunosuppressant and therapeutic agent, altered in the control group due to ADA) was “unaltered”.
